The text below walks through data of IntAct's records for PubMed 21258410.

The labels stand for the following.
B1: Mothers against decapentaplegic homolog 7 (Homo sapiens), O15105 (parent)
chain: MFRTKRSALVRRLWRSRAPGGEDEEEGAGGGGGGGELRGEGATDSRAHGAGGGGPGRAGCCLGKAVRGAKGHHHPHPPAAGAGAAGGAEADLKALTHSVLKKLKERQLELLLQAVESRGGTRTACLLLPGRLDCRLGPGAPAGAQPAQPPSSYSLPLLLCKVFRWPDLRHSSEVKRLCCCESYGKINPELVCCNPHHLSRLCELESPPPPYSRYPMDFLKPTADCPDAVPSSAETGGTNYLAPGGLSDSQLLLEPGDRSHWCVVAYWEEKTRVGRLYCVQEPSLDIFYDLPQGNGFCLGQLNSDNKSQLVQKVRSKIGCGIQLTREVDGVWVYNRSSYPIFIKSATLDNPDSRTLLVHKVFPGFSIKAFDYEKAYSLQRPNDHEFMQQPWTGFTVQISFVKGWGQCYTRQFISSCPCWLEVIFNSR

The variants in the test derive from B1. The settings on record: with wwp2_human WWP2, O00308.
wwp2_human WWP2, O00308, sequence (O00308 whole entry): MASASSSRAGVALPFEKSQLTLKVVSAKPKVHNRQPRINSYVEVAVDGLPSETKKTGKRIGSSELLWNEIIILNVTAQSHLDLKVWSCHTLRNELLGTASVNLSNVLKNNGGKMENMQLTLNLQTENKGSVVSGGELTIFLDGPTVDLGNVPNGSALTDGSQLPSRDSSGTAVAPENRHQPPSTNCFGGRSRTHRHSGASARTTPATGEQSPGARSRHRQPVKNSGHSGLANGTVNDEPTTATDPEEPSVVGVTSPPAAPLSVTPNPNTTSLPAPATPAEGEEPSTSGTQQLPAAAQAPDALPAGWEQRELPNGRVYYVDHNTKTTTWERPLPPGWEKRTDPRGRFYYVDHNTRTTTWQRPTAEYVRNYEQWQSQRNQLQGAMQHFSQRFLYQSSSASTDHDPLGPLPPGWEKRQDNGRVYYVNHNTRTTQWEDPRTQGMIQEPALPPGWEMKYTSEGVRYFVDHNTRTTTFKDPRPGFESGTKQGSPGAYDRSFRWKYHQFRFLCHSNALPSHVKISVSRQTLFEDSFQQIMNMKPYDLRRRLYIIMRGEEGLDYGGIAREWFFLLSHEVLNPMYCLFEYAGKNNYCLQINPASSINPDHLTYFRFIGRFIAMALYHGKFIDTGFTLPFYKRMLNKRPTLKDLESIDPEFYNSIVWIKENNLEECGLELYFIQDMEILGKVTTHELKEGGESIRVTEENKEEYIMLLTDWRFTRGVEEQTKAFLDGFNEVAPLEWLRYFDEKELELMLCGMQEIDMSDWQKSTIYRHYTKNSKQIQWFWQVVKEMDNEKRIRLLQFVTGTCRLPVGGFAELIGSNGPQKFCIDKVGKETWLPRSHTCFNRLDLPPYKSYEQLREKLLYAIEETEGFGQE
Take P210G;Y211S: the “effect of a mutation on the interaction” value is given as “disrupting interaction”.
